Measured values reported in patent US9995740B2, “Method of determining temperature and method of detecting a target peptide” (SYSMEX CORPORATION, priority 2015, dated 2018).
Residues, ends and D or L forms follow the SMILES beside them. No end group written: not given here.

How the values were obtained:
[1] = Isoelectric point (pI) of the peptides of Table 3; assay type: physicochemical
HSA [2] = target: T1, HSA (Homo sapiens, UniProt P02768); assay: Kd of TMR-labeled peptide for HSA by fluorescence intensity difference and Hill's equation; assay type: binding; details: for suitability as linker peptide of the peptide for temperature determination (FIG. 8): classified by Kd for HSA, 500 μM or more = suitable
T1 construct: purchased Sigma-Aldrich Co. LLC
Experimental: Each of the resulting mixtures was subjected to measurement with a spectrophotofluorometer [product name: F-7000, manufactured by Hitachi High-Technologies Corporation] and the fluorescence intensity with an excitation wavelength of 540 nm and a fluorescence wavelength of 580 nm (hereinafter, referred to as “fluorescence intensity A”) was measured.
Each of the resulting mixtures was subjected to measurement with a spectrophotofluorometer [product name: F-7000, manufactured by Hitachi High-Technologies Corporation] and the fluorescence intensity with an excitation wavelength of 540 nm and a fluorescence wavelength of 580 nm (hereinafter, referred to as “fluorescence intensity B”) was measured.
Equation (I): Difference between fluorescence intensities=fluorescence intensity A−fluorescence intensity B (I)
A difference between the fluorescence intensities was determined in accordance with the above equation.

HSA [3] = target: T1, HSA; assay: Hydrothermal treatment in the presence of HSA or serum, partition of peptide between supernatant and insoluble fraction (SDS-PAGE, fluorescence image); details: for band derived from the peptide in supernatant of hydrothermally-treated sample: SDS-PAGE fluorescence image
[4] = microwave hydrothermal treatment 160° C., in the presence of HSA
[5] = heat transfer 200° C. for 40 minutes, in the presence of HSA (300 or 600 μM), phosphate buffered saline

For CSCC[C@H](NC(=O)[C@H](CO)NC(=O)[C@H](Cc1ccc(O)cc1)NC(=O)[C@@H](N)CO)C(=O)N[C@@H](CCC(=O)O)C(=O)N[C@@H](Cc1c[nH]cn1)C(=O)N[C@@H](Cc1ccccc1)C(=O)N[C@@H](CCCNC(=N)N)C(=O)N[C@@H](Cc1c[nH]c2ccccc12)C(=O)NCC(=O)N[C@@H](CCCCN)C(=O)N1CCC[C@H]1C(=O)N[C@H](C(=O)NCC(=O)N[C@@H](CCCCN)C(=O)N[C@@H](CCCCN)C(=O)N[C@@H](CCCNC(=N)N)C(=O)N[C@@H](CCCNC(=N)N)C(=O)N1CCC[C@H]1C(=O)N[C@H](C(=O)N[C@@H](CCCCN)C(=O)N[C@H](C(=O)N[C@@H](Cc1ccc(O)cc1)C(=O)N1CCC[C@H]1C(=O)N[C@@H](CC(N)=O)C(=O)N[C@@H](C)C(=O)NCC(=O)N[C@@H](CCC(=O)O)C(=O)N[C@@H](CC(N)=O)C(=O)N[C@@H](CCC(=O)O)C(=O)N[C@@H](CO)C(=O)N[C@@H](C)C(=O)N[C@@H](CCC(=O)O)C(=O)N[C@@H](C)C(=O)N[C@@H](Cc1ccccc1)C(=O)N1CCC[C@H]1C(=O)N[C@@H](CC(C)C)C(=O)N[C@@H](CCC(=O)O)C(=O)N[C@@H](Cc1ccccc1)C(=O)O)C(C)C)C(C)C)C(C)C [ACTH (1-39), Adrenocorticotropic hormone (ACTH) (1-39)] (H-SYSMEHFRWGKPVGKKRRPVKVYPNAGENESAEAFPLEF-OH; N-terminus and C-terminus assumed), the pI [1] was 9.3 and the “suitability as linker peptide of the peptide for temperature determination (FIG. 8)” value (shortened to “suitability as linker peptide”) (HSA [2]) was “suitable”.

CC[C@H](C)[C@H](NC(=O)[C@H](CCC(=O)O)NC(=O)[C@H](CC(=O)O)NC(=O)[C@@H](NC(=O)[C@H](CS)NC(=O)[C@H](CC(C)C)NC(=O)[C@@H]1CCCN1C(=O)[C@H](CCCNC(=N)N)NC(=O)[C@H](Cc1c[nH]c2ccccc12)NC(=O)CNC(=O)[C@H](CS)NC(=O)[C@H](CC(C)C)NC(=O)[C@H](Cc1c[nH]c2ccccc12)NC(=O)[C@H](CCC(=O)O)NC(=O)[C@H](CC(=O)O)NC(=O)[C@@H](N)CC(=O)O)[C@@H](C)CC)C(=O)N[C@@H](CC(C)C)C(=O)N[C@@H](CCCNC(=N)N)C(=O)O [SA21] (H-DDEWLCGWRPLCIDEILR-OH; N-terminus and C-terminus assumed) gave a Kd (HSA [2]; TMR-labeled peptide, phosphate buffered saline, excitation 540 nm / fluorescence 580 nm) of less than 500 µM.

For “(Arg) 10: SEQ ID NO: 21, 10 amino acid residues”, the pI [1] was 13 and the “suitability as linker peptide” value (HSA [2]) was “suitable”.

With “(Glu) 10: SEQ ID NO: 18, 10 amino acid residues” the pI [1] was 3.5 and the “suitability as linker peptide” value (HSA [2]) was “suitable”.

For “(Gly) 10: SEQ ID NO: 20, 10 amino acid residues”, the pI [1] was 5.5 and the “suitability as linker peptide” value (HSA [2]) was “suitable”.

With “(His)3: SEQ ID NO: 11, 3 amino acid residues (HHH; Synthetic sequence of (His)3)” the pI [1] was 7.

With “(Lys)10: SEQ ID NO: 6, 10 amino acid residues (KKKKKKKKKK; Synthetic sequence of (Lys)10)” the pI [1] was 11.

For “ACTH (1-41): SEQ ID NO: 17, 41 amino acid residues (GPSYSMEHFRWGKPVGKKRRPVKVYPNGAEDESAEAFPLEF; Synthetic sequence of ACTH (1-41))”, the pI [1] was 8.3 and the “suitability as linker peptide” value (HSA [2]) was “suitable”.

Compound “ACTH (2-16): SEQ ID NO: 10, 15 amino acid residues (YSMEHFRWGKPVGKK; Synthetic sequence of ACTH (2-16))” has a pI [1] of 10.

“ACTH (7-11): SEQ ID NO: 5, 5 amino acid residues (FRWGK; Synthetic sequence of ACTH (7-11))” gave a pI [1] of 11.

For “Blood coagulation factor XIII (Factor XIII): SEQ ID NO: 15, 25 amino acid residues (AVPPNNSNAAEDDLPTVELQGVVPR; Synthetic sequence of Factor XIII)”, the pI [1] was 3.9.

For Brain natriuretic peptide [BNP], the pI [1] was 11 and the “suitability as linker peptide” value (HSA [2]) was “suitable”.

In the case of “C4a: SEQ ID NO: 23, 15 amino acid residues (NGFKSHALQLNNRQI; Synthetic sequence of C4a) [Peptide C4a]”, the pI [1] is reported as 11 and the “suitability as linker peptide” value (HSA [2]) is reported as “suitable”.

With “C-peptide: SEQ ID NO: 31, 31 amino acid residues (EAEDLQVGQVELGGGPGAGSLQPLALEGSLQ; Synthetic sequence of C-peptide)” the pI [1] was 3.5 and the “suitability as linker peptide” value (HSA [2]) was “suitable”.

With Colistin the “suitability as linker peptide” value (HSA [2]) was “suitable”.

In the case of “Cp6: SEQ ID NO: 22, 8 amino acid residues (DIGEEFNQ; Synthetic sequence of Cp6)”, the pI [1] is reported as 3.6 and the “suitability as linker peptide” value (HSA [2]) is reported as “suitable”.

In the case of “Dynorphin A (YGGFLRRIRPKLK; Synthetic sequence of Dynorphin A)”, the pI [1] is reported as 11.7 and the “suitability as linker peptide” value (HSA [2]) is reported as “suitable”.

In the case of “Fibrinogen α: SEQ ID NO: 12, 25 amino acid residues (DEAGSEADHEGTHSTKRGHAKSRPV; Synthetic sequence of Fibrinogen alpha)”, the pI [1] is reported as 6.3.

“Glucagon (1-29): SEQ ID NO: 4, 29 amino acid residues” gave a pI [1] of 6.8.

With “HSA 237-249 fragment: SEQ ID NO: 26, 13 amino acid residues (AWAVARLSQRFPK; Synthetic sequence of HSA237-249)” the pI [1] was 12 and the “suitability as linker peptide” value (HSA [2]) was “suitable”.

For “HSA 599-609 fragment: SEQ ID NO: 30, 11 amino acid residues (LVAASQAALGL; Synthetic sequence of HSA599-609)”, the pI [1] was 5.5 and the “suitability as linker peptide” value (HSA [2]) was “suitable”.

For “ITIH4: SEQ ID NO: 28, 21 amino acid residues (NVHSAGAAGSRMNFRPGVLSS; Synthetic sequence of ITIH4)”, the pI [1] was 12 and the “suitability as linker peptide” value (HSA [2]) was “suitable”.

With “Kininogen: SEQ ID NO: 7, 19 amino acid residues (HNLGHGHKHERDQGHGHQR; Synthetic sequence of Kininorgen)” the pI [1] was 8.8.

In the case of “TMR-labeled ACTH (1-24): ACTH (1-24) labeled with tetramethyl rhodamine (TMR)”, the “band derived from the peptide in supernatant of hydrothermally-treated sample” value (from here on “band derived from the peptide”) (HSA [3]; [4]) is reported as “not observed”.

In the case of “TMR-labeled ACTH (1-39): ACTH (1-39) labeled with tetramethyl rhodamine (TMR) (SYSMEHFRWGKPVGKKRRPVKVYPNAGENESAEAFPLEF; also: tetramethyl rhodamine (TMR) label, position not given here)”, the “band derived from the peptide” value (HSA [3]; [4]) is reported as “observed”.

For “TMR-labeled HSA 599-609 fragment: HSA 599-609 fragment labeled with tetramethyl rhodamine (TMR) (LVAASQAALGL; also: tetramethyl rhodamine (TMR) label, position not given here)”, the “band derived from the peptide” value (HSA [3]; [5]) was “observed”.

For “TMR-labeled SA21: SA21 labeled with tetramethyl rhodamine; used as peptide for phase partition determination (DDEWLCGWRPLCIDEILR; cysteine pairing not given here; also: tetramethyl rhodamine (TMR) label, position not given here)”, the “partition of peptide after hydrothermal treatment” value (HSA [3]; 160° C., serum-containing sample M, observed under visible light) was “transferred to the insoluble fraction” and the “band derived from the peptide” value (HSA [3]; [5]) was “light band”.

For “lqp: SEQ ID NO: 13, 12 amino acid residues (GKYFNAAEYHAQ; Synthetic sequence of lqp)”, the pI [1] was 6.8.

For “β-amyloid (1-40): SEQ ID NO: 1, 40 amino acid residues”, the pI [1] was 5.3.

With “β-amyloid (1-42): SEQ ID NO: 2, 42 amino acid residues” the pI [1] was 5.3.
